Results reported in patent US20250276081A1, “Mucin-Active Proteases and Methods of Use” (priority 2022, published 2025).

Columns and labels:
CD46 (human) = CD46 (human) (UniProt P15529)
[1] = target: Annexin A1 (ANXA1) (human) (UniProt P04083)
CD236 (human) = CD236 (human) (UniProt P04921)
OVCAR-3 cells = assay: Bioactive compound library screen and STACK cell death analysis ± StcE; format: cell-based
Description: Bioactive compound library screen. A library of 261 bioactive compounds (Selleck Chemicals) was stored at −80° C. The library was re-formatted from 96-well to 384-well format using a Versette automated liquid handler configured with a 96-channel pipetting head and diluted to 2 mM in DMSO. The day before the screen, 5×10^3 OVCAR-3^N cells/well were seeded into two 384-well plates in 45 μL of medium. The next day, the medium was removed and replaced with medium containing 20 nM Sytox Green and compounds from a freshly thawed library master stock plate (1 compound/well) were added to a final concentration of 500 nM. One plate was co-treated with vehicle (PBS) and the other with 50 nM StcE. Plates were imaged immediately and every 2 h thereafter for a total of 72 h using the Essen IncuCyte Zoom. Counts of Sytox Green and mKate^2 objects per mm^2 were obtained and the lethal fraction calculated as previously described^2. […] The Bliss Independence Model was used to compute expectant cell death of compound+ StcE treatment using normalized AUC (nAUC) values, and deviation from this expectation was used to infer modulation of cell death, as described previously^3.
Measuring cell death using STACK. Follow-up cell death experiments of OVCAR-3^N cells were performed using scalable time-lapse analysis of cell death kinetics (STACK) 2. […]

mucin-1 (MUC1) (human) = mucin-1 (MUC1) (human) (UniProt P15941)
Sequence of mucin-1 (MUC1) (human) (P15941 24-1255): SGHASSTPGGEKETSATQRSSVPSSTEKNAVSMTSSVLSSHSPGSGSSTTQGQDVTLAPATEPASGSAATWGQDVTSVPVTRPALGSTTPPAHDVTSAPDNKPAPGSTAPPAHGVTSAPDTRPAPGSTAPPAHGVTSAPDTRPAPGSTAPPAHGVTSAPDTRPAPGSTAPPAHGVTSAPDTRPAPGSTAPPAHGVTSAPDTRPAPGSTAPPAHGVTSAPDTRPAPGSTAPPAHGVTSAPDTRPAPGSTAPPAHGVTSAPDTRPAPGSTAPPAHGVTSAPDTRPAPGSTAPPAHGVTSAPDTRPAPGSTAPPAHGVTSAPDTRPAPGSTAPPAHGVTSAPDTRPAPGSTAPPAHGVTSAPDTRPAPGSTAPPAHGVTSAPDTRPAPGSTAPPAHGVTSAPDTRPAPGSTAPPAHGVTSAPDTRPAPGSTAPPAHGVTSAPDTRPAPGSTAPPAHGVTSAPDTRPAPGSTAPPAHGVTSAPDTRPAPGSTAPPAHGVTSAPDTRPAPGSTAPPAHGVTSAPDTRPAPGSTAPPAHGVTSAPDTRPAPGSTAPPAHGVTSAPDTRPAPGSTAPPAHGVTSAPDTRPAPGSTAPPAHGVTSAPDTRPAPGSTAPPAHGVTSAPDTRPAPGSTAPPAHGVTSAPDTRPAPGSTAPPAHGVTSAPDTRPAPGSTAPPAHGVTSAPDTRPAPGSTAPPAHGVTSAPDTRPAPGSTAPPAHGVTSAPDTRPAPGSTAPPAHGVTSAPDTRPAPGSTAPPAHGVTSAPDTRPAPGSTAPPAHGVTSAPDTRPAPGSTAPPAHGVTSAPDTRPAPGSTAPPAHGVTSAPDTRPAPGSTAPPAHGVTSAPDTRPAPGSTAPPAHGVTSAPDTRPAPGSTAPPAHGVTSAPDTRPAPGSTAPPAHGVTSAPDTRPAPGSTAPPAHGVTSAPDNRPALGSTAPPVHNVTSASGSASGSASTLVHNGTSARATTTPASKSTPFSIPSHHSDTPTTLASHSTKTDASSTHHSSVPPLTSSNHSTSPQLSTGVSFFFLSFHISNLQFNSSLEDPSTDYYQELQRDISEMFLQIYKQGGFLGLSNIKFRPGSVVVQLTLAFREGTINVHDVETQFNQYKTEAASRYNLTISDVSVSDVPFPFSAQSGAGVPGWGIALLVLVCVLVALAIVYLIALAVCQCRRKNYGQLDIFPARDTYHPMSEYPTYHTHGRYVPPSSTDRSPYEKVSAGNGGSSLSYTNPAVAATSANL

[2] = target: CD43 (sialophorin) (human) (UniProt P16150)
Sequence of CD43 (sialophorin) (human) (P16150 20-400): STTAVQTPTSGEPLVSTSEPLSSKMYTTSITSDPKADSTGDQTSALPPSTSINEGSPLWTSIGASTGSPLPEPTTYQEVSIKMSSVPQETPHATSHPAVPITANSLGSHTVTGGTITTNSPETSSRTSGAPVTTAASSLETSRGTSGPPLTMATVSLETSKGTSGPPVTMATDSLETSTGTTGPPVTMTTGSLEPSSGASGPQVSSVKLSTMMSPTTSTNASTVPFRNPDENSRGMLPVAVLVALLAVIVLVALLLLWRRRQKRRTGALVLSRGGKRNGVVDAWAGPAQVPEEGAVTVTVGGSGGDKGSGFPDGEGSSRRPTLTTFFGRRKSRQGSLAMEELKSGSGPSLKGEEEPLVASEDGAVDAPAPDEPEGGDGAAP

CD30 (human) = CD30 (human) (UniProt P28908)
Sequence of CD30 (human) (P28908 19-595): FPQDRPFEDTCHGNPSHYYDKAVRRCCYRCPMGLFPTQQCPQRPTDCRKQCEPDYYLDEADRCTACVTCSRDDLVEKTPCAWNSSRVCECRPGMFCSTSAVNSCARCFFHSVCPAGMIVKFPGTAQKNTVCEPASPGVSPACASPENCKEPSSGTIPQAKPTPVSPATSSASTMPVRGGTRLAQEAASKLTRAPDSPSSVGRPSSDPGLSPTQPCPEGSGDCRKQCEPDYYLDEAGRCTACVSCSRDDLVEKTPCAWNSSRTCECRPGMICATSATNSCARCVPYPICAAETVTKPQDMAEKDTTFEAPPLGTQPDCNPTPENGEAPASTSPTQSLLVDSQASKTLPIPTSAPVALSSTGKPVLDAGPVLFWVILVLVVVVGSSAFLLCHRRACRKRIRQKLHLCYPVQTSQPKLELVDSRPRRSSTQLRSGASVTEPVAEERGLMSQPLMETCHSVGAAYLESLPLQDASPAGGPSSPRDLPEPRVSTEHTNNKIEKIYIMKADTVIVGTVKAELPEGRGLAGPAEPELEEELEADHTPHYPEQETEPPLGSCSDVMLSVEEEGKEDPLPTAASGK

CD98 (human) = CD98 (human) (UniProt P08195)
Sequence of CD98 (human) (P08195 103-630): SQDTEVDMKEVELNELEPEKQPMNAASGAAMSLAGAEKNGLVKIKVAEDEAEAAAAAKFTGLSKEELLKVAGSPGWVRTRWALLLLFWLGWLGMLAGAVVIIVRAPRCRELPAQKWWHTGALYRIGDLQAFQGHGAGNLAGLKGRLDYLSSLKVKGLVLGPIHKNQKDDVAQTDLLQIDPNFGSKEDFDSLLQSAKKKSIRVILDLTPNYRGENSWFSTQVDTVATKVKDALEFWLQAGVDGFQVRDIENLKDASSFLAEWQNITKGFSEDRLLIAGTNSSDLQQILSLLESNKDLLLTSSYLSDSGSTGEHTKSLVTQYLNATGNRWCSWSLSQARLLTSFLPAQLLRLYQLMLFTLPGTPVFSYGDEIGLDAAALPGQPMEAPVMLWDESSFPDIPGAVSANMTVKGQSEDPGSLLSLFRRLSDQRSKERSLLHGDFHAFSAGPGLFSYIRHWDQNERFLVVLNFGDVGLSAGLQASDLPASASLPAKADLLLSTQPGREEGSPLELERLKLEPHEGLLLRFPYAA

[3] = target: cell surface mucins on HeLa cells
CD29 (human) = CD29 (human) (UniProt P05556)
Sequence of CD29 (human) (P05556 21-798): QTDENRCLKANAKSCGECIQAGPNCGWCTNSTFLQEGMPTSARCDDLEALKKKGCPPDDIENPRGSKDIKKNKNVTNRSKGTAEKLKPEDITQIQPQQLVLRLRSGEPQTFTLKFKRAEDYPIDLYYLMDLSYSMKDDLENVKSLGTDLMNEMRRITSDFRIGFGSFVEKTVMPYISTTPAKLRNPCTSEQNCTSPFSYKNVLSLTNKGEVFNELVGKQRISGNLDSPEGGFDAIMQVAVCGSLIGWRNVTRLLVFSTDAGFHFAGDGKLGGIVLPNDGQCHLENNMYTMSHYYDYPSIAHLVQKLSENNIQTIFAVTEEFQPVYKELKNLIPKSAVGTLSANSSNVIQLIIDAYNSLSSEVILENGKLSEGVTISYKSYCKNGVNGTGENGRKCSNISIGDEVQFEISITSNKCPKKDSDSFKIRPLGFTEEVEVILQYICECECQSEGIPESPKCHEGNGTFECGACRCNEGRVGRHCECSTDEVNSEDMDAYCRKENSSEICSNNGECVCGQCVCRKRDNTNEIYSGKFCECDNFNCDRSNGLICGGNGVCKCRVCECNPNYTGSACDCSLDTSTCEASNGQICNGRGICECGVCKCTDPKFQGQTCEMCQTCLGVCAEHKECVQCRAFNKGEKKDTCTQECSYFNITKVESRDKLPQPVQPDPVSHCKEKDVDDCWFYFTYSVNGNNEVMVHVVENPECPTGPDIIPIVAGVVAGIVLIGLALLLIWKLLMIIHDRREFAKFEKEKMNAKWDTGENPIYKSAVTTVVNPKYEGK

[4] = target: human epidermal growth factor receptor 2 (HER2) (human) (UniProt P04626)

Sequence of CD46 (human) (P15529 35-392): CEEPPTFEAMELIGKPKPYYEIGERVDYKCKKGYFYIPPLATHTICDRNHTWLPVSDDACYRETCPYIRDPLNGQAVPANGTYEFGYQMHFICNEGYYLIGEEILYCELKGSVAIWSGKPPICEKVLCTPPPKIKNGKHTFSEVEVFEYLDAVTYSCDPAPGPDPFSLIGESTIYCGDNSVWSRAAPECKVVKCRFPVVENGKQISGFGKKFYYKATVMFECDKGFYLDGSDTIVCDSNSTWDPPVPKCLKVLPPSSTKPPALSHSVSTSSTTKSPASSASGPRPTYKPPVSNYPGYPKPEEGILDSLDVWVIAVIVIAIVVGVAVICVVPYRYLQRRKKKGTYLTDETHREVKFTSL
Sequence of Annexin A1 (ANXA1) (human) (P04083 2-346): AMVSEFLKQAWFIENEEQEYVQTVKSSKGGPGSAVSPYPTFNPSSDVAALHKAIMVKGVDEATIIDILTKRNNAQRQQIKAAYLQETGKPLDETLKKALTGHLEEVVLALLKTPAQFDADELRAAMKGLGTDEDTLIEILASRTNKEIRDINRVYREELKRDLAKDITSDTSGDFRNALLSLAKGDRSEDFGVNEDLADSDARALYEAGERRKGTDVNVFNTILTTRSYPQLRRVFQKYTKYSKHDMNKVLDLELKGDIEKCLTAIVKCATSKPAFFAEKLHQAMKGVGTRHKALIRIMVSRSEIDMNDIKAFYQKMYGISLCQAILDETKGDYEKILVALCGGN
Sequence of CD236 (human) (P04921 whole entry): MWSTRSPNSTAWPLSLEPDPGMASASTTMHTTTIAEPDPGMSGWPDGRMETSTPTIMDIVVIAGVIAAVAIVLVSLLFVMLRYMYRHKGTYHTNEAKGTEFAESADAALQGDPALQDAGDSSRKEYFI

Isotype control antibody, clone MOPC-21 (BioLegend)
Maximum MFI observed in binding assay (K562^HER2 cell surface): 0.1 AU

anti-CD46 antibody, clone TRA-2-10 (BioLegend)
Maximum MFI observed in binding assay (CD46 (human)): 64.9 AU

anti-Annexin A1 antibody, clone 74/3 (BioLegend)
Maximum MFI observed in binding assay [1]: 1.3 AU

anti-CD236 antibody, clone QA20A41 (BioLegend)
Maximum MFI observed in binding assay (CD236 (human)): 188 AU

COC(=O)c1ccc([C@@H]2c3[nH]c4ccccc4c3C[C@@H](C(=O)OC)N2C(=O)CCl)cc1 [RSL3]
Enhancement of ferroptosis by StcE co-treatment (OVCAR-3 cells; dose response ± 50 nM StcE, OVCAR-3): no enhancement of ferroptosis

Anti-MUC1/episialin antibody, clone 214D4 (EMD Millipore)
Maximum MFI observed in binding assay (mucin-1 (MUC1) (human)): 328 AU

anti-CD43 antibody, clone CD43-10G7 (BioLegend)
Maximum MFI observed in binding assay [2]: 160 AU

anti-CD30 antibody, clone BY88 (BioLegend)
Maximum MFI observed in binding assay (CD30 (human)): 9.8 AU

anti-CD98 antibody, clone MEM-108 (BioLegend)
Maximum MFI observed in binding assay (CD98 (human)): 234 AU

ddStcE^W366A (ΔC, ΔINS and W366A), engineered StcE (from UniProt O82882 36-803) (enzyme)
Kd [3]: 2000 nM

anti-CD29 antibody, clone P5D2 (BioLegend)
Maximum MFI observed in binding assay (CD29 (human)): 23.7 AU

CCOC(=O)c1ccc(NC2CCCCC2)c(N)c1 [ferrostatin-1]
Suppression of erastin2 + StcE induced ferroptosis (OVCAR-3 cells; 1 μM ferrostatin-1): fully suppressed

Mouse IgG1 anti-human CD340 (erbB2/HER-2) antibody, clone 24D2 (BioLegend)
Maximum MFI observed in binding assay [4]: 311 AU
